Laboratory results as given in the supplement of paper PMC11246515.
± gives the standard deviation of the averaged measurements.

Assay: total protein half-life in vivo (active degradation + dilution); higher = more stable protein
[1] = E. coli NCM3722 delta-clpP delta-lon delta-hslV, growth: N-lim chemostat, doubling time 6 h
[2] = E. coli NCM3722 delta-clpP, growth: N-lim chemostat, doubling time 6 h
[3] = E. coli NCM3722 delta-hslV, growth: N-lim chemostat, doubling time 6 h
[4] = E. coli NCM3722 delta-lon, growth: N-lim chemostat, doubling time 6 h
[5] = E. coli NCM3722 delta-smpB, growth: N-lim chemostat, doubling time 6 h
[6] = wild type E. coli NCM3722, growth: C-lim chemostat, doubling time 3 h
[7] = wild type E. coli NCM3722, growth: C-lim chemostat, doubling time 6 h
[8] = wild type E. coli NCM3722, growth: C-lim chemostat, doubling time 12 h
[9] = wild type E. coli NCM3722, growth: N-lim chemostat, doubling time 6 h
[10] = wild type E. coli NCM3722, growth: N-lim chemostat, doubling time 12 h
[11] = wild type E. coli NCM3722, growth: P-lim chemostat, doubling time 6 h
[12] = wild type E. coli NCM3722, growth: P-lim chemostat, doubling time 12 h

Sequence | total protein half-life in vivo [1] [h] | total protein half-life in vivo [2] [h] | total protein half-life in vivo [3] [h] | total protein half-life in vivo [4] [h] | total protein half-life in vivo [5] [h] | total protein half-life in vivo [6] [h] | total protein half-life in vivo [7] [h] | total protein half-life in vivo [8] [h] | total protein half-life in vivo [9] [h] | total protein half-life in vivo [10] [h] | total protein half-life in vivo [11] [h] | total protein half-life in vivo [12] [h]
MLNYVIKRLLGLIPTLFIVSVLVFLFVHMLPGDPARLIAGPEADAQVIELVRQQLGLDQPLYHQFWHYISNAVQGDFGLSMVSRRPVADEIASRFMPTLWLTITSMVWAVIFGMAAGIIAAVWRNRWPDRLSMTIAVSGISFPAFALGMLLIQVFSVELGWLPTVGADSWQHYILPSLTLGAAVAAVMARFTRASFVDVLSEDYMRTARAKGVSETWVVLKHGLRNAMIPVVTMMGLQFGFLLGGSIVVEKVFNWPGLGRLLVDSVEMRDYPVIQAEILLFSLEFILINLVVDVLYAAINPAIRYK | 6.23 ± 0.21 | 5.94 ± 1 | 6.89 ± 0.77 | 6.12 ± 1.5 | 5.48 ± 0.069 | 3.13 ± 0.44 | 6.58 ± 0.59 | 11.4 ± 1.1 | 5.84 ± 0.41 | 11.1 ± 0.85 | 5.68 | 12.6 ± 1.1
MPVFALLALVAYSVSLALIVPGLLQKNGGWRRMAIISAVIALVCHAIALEARILPDGDSGQNLSLLNVGSLVSLMICTVMTIVASRNRGWLLLPIVYAFALINLALATFMPNEYITHLEATPGMLVHIGLSLFSYATLIIAALYALQLAWIDYQLKNKKLAFNQEMPPLMSIERKMFHITQIGVVLLTLTLCTGLFYMHNLFSMENIDKAVLSIVAWFVYIVLLWGHYHEGWRGRRVVWFNVAGAVILTLAYFGSRIVQQLIS | – | – | – | – | – | – | – | 13.6 | 6.45 | – | – | 15.5
MFKSTLAAMAAVFALSALSPAAMAAKGDPHVLLTTSAGNIELELDKQKAPVSVQNFVDYVNSGFYNNTTFHRVIPGFMIQGGGFTEQMQQKKPNPPIKNEADNGLRNTRGTIAMARTADKDSATSQFFINVADNAFLDHGQRDFGYAVFGKVVKGMDVADKISQVPTHDVGPYQNVPSKPVVILSAKVLP [P0AFL3] | 5.17 ± 0.94 | – | – | 6.04 ± 0.29 | 5.59 ± 0.8 | 3.1 ± 0.19 | 4.98 ± 0.6 | 8.28 ± 1.4 | 5.46 ± 0.15 | 10.36 ± 0.074 | 5.31 ± 0.43 | 11.5 ± 0.59
MKFFALFIYRPVATILLSVAITLCGILGFRMLPVAPLPQVDFPVIIVSASLPGASPETMASSVATPLERSLGRIAGVSEMTSSSSLGSTRIILQFDFDRDINGAARDVQAAINAAQSLLPSGMPSRPTYRKANPSDAPIMILTLTSDTYSQGELYDFASTQLAPTISQIDGVGDVDVGGSSLPAVRVGLNPQALFNQGVSLDDVRTAVSNANVRKPQGALEDGTHRWQIQTNDELKTAAEYQPLIIHYNNGGAVRLGDVATVTDSVQDVRNAGMTNAKPAILLMIRKLPEANIIQTVDSIRAKLPELQETIPAAIDLQIAQDRSPTIRASLEEVEQTLIISVALVILVVFLFLRSGRATIIPAVSVPVSLIGTFAAMYLCGFSLNNLSLMALTIATGFVVDDAIVVLENIARHLEAGMKPLQAALQGTREVGFTVLSMSLSLVAVFLPLLLMGGLPGRLLREFAVTLSVAIGISLLVSLTLTPMMCGWMLKASKPREQKRLRGFGRMLVALQQGYGKSLKWVLNHTRLVGVVLLGTIALNIWLYISIPKTFFPEQDTGVLMGGIQADQSISFQAMRGKLQDFMKIIRDDPAVDNVTGFTGGSRVNSGMMFITLKPRDERSETAQQIIDRLRVKLAKEPGANLFLMAVQDIRVGGRQSNASYQYTLLSDDLAALREWEPKIRKKLATLPELADVNSDQQDNGAEMNLVYDRDTMARLGIDVQAANSLLNNAFGQRQISTIYQPMNQYKVVMEVDPRYTQDISALEKMFVINNEGKAIPLSYFAKWQPANAPLSVNHQGLSAASTISFNLPTGKSLSDASAAIDRAMTQLGVPSTVRGSFAGTAQVFQETMNSQVILIIAAIATVYIVLGILYESYVHPLTILSTLPSAGVGALLALELFNAPFSLIALIGIMLLIGIVKKNAIMMVDFALEAQRHGNLTPQEAIFQACLLRFRPIMMTTLAALFGALPLVLSGGDGSELRQPLGITIVGGLVMSQLLTLYTTPVVYLFFDRLRLRFSRKPKQTVTE | 6.8 ± 0.5 | 6.49 ± 0.36 | 5.92 ± 0.38 | 7.42 ± 0.68 | 5.44 ± 0.14 | 3.64 ± 0.29 | 6.08 ± 1 | 14.4 ± 0.89 | 5.78 ± 0.89 | 13.8 ± 0.8 | 6.3 ± 0.2 | 12.2 ± 0.66
MANELTWHDVLAEEKQQPYFLNTLQTVASERQSGVTIYPPQKDVFNAFRFTELGDVKVVILGQDPYHGPGQAHGLAFSVRPGIAIPPSLLNMYKELENTIPGFTRPNHGYLESWARQGVLLLNTVLTVRAGQAHSHASLGWETFTDKVISLINQHREGVVFLLWGSHAQKKGAIIDKQRHHVLKAPHPSPLSAHRGFFGCNHFVLANQWLEQRGETPIDWMPVLPAESE | – | 5.184 ± 0.029 | 5.26 ± 0.17 | 5.24 ± 0.29 | 5.6 ± 0.28 | 3.1 ± 0.099 | 5.17 ± 0.19 | 11.2 ± 2.4 | 4.89 ± 0.42 | 10.6 ± 0.65 | 5.97 ± 0.092 | –
